This experiment deals with T1, cAMP-dependent protein kinase (PKA) type I regulatory subunit isoform α, full-length wild type (UniProt P00514 1-380).
T1 construct: PKA type I regulatory subunit α (RIα), full length, UniProtKB P00514 used for the HDXMS peptide search; Cloned in pRSETA; for FP loaded with 8-fl-cAMP or 2'-fl-cAMP; also called RIα; WT RIα
The experiment in a line: fluorescence polarisation; about 1 uM RIα preloaded with 8-fl-cAMP or 2'-fl-cAMP (excess ligand removed by SEC), about 2 uM PDE8 added; polarisation followed over 120 min; 96-well plates; excess cAMP (25 or 100 uM) added at 20 min in some runs. The note with it: both partners purified.

Substitutions are numbered along the chain they refer to. Names may count otherwise.

T1 sequence (P00514 whole entry, canonical isoform): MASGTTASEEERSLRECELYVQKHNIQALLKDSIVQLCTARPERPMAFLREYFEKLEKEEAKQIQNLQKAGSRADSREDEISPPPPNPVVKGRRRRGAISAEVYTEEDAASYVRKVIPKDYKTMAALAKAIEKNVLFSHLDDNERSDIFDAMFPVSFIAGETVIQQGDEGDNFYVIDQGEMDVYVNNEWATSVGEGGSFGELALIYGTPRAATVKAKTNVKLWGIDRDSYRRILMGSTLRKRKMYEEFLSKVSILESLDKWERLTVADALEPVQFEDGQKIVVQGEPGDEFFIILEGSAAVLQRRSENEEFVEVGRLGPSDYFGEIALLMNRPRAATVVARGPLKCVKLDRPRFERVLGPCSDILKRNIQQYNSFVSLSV

B1: catalytic domain of wild-type PDE8A1 (472-829) (domain or fragment, UniProt O60658-1 472-829, looked up)
chain: SSNIITPISLDDVPPRIARAMENEEYWDFDIFELEAATHNRPLIYLGLKMFARFGICEFLHCSESTLRSWLQIIEANYHSSNPYHNSTHSADVLHATAYFLSKERIKETLDPIDEVAALIAATIHDVDHPGRTNSFLCNAGSELAILYNDTAVLESHHAALAFQLTTGDDKCNIFKNMERNDYRTLRQGIIDMVLATEMTKHFEHVNKFVNSINKPLATLEENGETDKNQEVINTMLRTPENRTLIKRMLIKCADVSNPCRPLQYCIEWAARISEEYFSQTDEEKQQGLPVVMPVFDRNTCSIPKSQISFIDYFITDMFDAWDAFVDLPDLMQHLDNNFKYWKGLDEMKLRNLRPPPE
notes: PDE8A catalytic domain, residues 472-829 of PDE8A1, UniProtKB O60658 used for the HDXMS peptide search; Cloned in pET-Duet1; also called PDE8 WT; WT PDE8
With B1, the binding result was “binds”.

B2: PDE8A catalytic domain (472-829) T690P (domain or fragment, UniProt O60658 472-829, looked up)
chain: B1 chain with T219P
notes: PDE8A catalytic domain, residues 472-829 of PDE8A1, UniProtKB O60658, with T690P (made as the equivalent of the acrodysostosis mutation PDE4D T594P); Cloned in pET-Duet1; also called PDE8 T690P; PDE8c T690P
As to B2, the binding result was “binds”.

These data come from publication PMC10552185, “Impaired cAMP processivity by phosphodiesterase-protein kinase A complexes in acrodysostosis” (Frontiers in Molecular Biosciences, 2023).
